Six molecules from publication PMC5180209 (Structure (London, England : 1993), 2016) can be followed below.

This test addresses B56γ 31–380 (PP2A regulatory subunit B56) (UniProt Q13362 31-380). Put plainly: ITC.

Square brackets hold non-standard residues; d marks the D form. Ends that are not written are not given here. pS = N[C@@H](COP(=O)(O)O)C(=O)O

In turn, RDIASKKPLL[pS]PIPELPEVPE [pS-RepoMan peptide, 581-RDIASKKPLL-pS-PIPELPEVPE-601 (mono-phosphorylated RepoMan)] registered a Kd of 100 nM. With KL[pS]PIIED [BubR1 peptide 668-KLpSPIIED-675], the “fold weaker binding than the peptide with residue 676” value was about 1.7 fold.

Turning to KL[pS]PIIEDE [BubR1 peptide 668-KLpSPIIEDE-676], the “fold increase of affinity as salt is reduced from 300 mM to 150 mM” value is about 3.6 fold.

KL[pS]PIIED[pS] [pSpS-BubR1 peptide, 668-KL-pS-PIIED-pS-676 (dually-phosphorylated BubR1)]: binding was characterised by a dissociation constant (Kd) of 2000 nM. As for KLEPIIEDE [BubR1 peptide 668-KLEPIIEDE-676], the “fold weaker affinity than KLpSPIIEDE” value was found to be 2.4 fold. TLSIKKL[pS]PIIEDDREADH [pS-BubR1 peptide, 663-TLSIKKL-pS-PIIEDDREADH-681 (mono-phosphorylated BubR1)] showed a Kd of 600 nM.
